The source of these data is patent US20210030857A1 (NGM BIOPHARMACEUTICALS, published 2021).

Experiment [1] has as its target T1, mouse beta klotho expressed on cells (mouse (Mus musculus), UniProt Q99N32 1-1043).
T1 construct: also called Mouse KLB
T1 sequence: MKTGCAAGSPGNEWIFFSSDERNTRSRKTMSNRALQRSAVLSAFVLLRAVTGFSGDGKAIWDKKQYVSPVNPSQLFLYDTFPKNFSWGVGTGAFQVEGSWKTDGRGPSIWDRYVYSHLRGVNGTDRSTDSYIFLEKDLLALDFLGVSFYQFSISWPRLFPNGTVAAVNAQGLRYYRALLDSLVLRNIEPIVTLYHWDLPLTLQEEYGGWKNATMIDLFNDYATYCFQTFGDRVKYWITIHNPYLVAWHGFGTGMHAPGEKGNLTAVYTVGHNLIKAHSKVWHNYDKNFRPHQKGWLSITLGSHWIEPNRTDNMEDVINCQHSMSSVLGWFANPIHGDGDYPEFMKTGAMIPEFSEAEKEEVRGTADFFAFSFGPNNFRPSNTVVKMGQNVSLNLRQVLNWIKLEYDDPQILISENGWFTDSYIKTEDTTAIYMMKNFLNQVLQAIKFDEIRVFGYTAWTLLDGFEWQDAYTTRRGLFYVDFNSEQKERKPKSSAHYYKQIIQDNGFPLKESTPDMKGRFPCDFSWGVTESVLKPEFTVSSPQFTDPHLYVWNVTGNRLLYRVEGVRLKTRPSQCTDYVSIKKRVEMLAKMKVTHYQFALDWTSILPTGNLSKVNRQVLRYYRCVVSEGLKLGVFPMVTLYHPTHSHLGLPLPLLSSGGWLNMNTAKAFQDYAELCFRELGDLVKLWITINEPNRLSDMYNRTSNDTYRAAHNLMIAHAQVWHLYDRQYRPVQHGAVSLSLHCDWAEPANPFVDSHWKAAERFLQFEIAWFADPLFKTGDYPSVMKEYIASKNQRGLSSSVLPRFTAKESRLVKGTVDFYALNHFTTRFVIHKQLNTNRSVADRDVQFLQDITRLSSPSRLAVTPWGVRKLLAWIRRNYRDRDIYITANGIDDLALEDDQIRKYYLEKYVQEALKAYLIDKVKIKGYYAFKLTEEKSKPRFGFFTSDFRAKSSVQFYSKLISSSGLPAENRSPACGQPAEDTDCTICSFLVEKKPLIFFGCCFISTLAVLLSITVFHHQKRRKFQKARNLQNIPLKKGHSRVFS
Description: FACS on transfected Expi293 cells. As for the experimental part: Studies were performed in order to localize the binding site on human KLB of anti-beta klotho antibodies in the 5H23 epitope bin, including 5H23 as described in Example 3, with sequences shown in Tables 1-10 and FIGS. 1-3, and human anti-beta klotho antibodies in the 5H23 epitope bin, such as humanized 5H23 antibodies (e.g., VH SEQ ID NO: 271 and VL SEQ ID NO: 276). For example, FACS-based binding assays for domain mapping were performed on Expi293 cells (Life Technologies, A14635) that were transiently transfected with plasmids encoding variants of KLB: human, mouse, cynomolgus, a chimeric version in which the KL1 domain sequence of mouse KLB (M1-F506) replaces the KL1 domain of human KLB (M1-F508) to create mouse-human KLB (SEQ ID NO: 376), and a second chimera in which the human KL1 sequence (M1-F508) replaces the KL1 domain of mouse KLB (M1-F506) to create human-mouse KLB (SEQ ID NO: 374). Additionally, the expression vector pYD7 harboring no KLB sequence was transfected as a negative control.
In some studies, binding of a purified sample of a humanized 5H23 antibody (e.g., VH SEQ ID NO: 271 and VL SEQ ID NO: 276) to KLB variants was determined by FACS analysis. […] After washing with PBS/1% BSA/0.1% azide, transfected cells were then co-incubated with labeled anti-human Fc (Jackson lmmunoresearch) for 30 minutes at 4° C. After washing with PBS/1% BSA/0.1% azide, cells were acquired on flow cytometer (FACS Calibur) and analyzed by cytometric software (FlowJo). To display the resulting data, graphs plotting the number of cells as a function of fluorescence intensity were generated, and the median fluorescence intensity (MFI) was determined for each sample as shown in Table 30.

Experiment [2] concerns the target T2, cynomolgus monkey beta klotho protein (soluble, used in Biacore) (cynomolgus monkey (Macaca fascicularis), UniProt Q86Z14 53-996 (human entry), limits assumed).
T2 construct: Protein in solution; also called Cyno KLB; cyKLB
T2 chain: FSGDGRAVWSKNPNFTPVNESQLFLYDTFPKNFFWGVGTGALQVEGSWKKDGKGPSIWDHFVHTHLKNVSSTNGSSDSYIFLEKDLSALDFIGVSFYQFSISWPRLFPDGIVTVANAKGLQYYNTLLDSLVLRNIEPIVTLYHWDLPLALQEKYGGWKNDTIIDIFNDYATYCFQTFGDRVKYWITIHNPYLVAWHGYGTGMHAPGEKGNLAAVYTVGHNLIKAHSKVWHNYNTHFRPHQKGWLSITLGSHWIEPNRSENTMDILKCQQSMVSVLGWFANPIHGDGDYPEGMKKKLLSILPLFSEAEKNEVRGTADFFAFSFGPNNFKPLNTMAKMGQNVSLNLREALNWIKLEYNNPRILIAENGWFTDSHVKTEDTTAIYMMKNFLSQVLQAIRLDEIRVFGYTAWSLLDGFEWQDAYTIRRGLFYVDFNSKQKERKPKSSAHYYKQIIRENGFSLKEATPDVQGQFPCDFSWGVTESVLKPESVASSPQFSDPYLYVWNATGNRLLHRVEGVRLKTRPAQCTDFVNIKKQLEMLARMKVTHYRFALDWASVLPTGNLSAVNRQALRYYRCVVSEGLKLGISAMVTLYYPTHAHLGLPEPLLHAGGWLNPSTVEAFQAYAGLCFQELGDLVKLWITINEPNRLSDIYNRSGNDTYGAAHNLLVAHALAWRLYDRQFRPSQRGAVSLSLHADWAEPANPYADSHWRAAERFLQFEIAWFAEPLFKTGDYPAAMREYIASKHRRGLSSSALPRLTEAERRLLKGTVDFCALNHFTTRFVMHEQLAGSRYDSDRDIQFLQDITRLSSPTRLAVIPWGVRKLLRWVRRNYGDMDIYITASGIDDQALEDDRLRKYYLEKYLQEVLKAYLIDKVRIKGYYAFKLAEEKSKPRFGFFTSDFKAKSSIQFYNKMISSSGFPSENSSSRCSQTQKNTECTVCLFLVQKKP
The experiment in a line: Biacore SPR (as in Example 2). For orientation: SPR reads the build-up and loss of mass on a sensor chip optically.

B1: humanized 5H23 antibody (VH SEQ ID NO: 271 and VL SEQ ID NO: 276) (antibody, V domains shown)
VH: QVQLQQSGAEVKKPGASVKVSCKASGYTFTSYDINWVRQAPGQGLEWIGWIYPGDGSTKYNEKFKGKATITRDTSASTAYMELSSLRSEDTAVYFCARSDYYGSRSFAYWGQGTLVTVSS
VL: DIVMTQSPDSLAVSLGERATINCRASKSVSTSGYVYMHWYQQKPGQPPKLLIYLASYLESGVPDRFSGSGSGTDFTLTISSVQAEDVAVYYCQHSRDLTFPFGGGTKLEIK
notes: also called h5H23; h5H23 (Prep 1)
Consider B1, for which, in experiment [1], the binding result is “no binding (tested: 1 µg/ml)”.

B2: antibody 5H23 (antibody, V domains shown)
VH: QVQLQQSGPELVKPGALVKISCKASGYTFTSYDINWVKQRPGQGLEWIGWIYPGDGSTKYNEKFKGKATLTADKSSRTAYMQLSSLTSENSAVYFCARSDYYGSRSFAYWGQGTLVTVSA
VL: DIVLTQSPASLAVSLGQRATISCRASKSVSTSGYVYMHWNQQKPGQPPKLLIYLASYLESGVPARFSGSGSGTDFTLNIHPVEEEDAAIYYCQHSRDLTFPFGGGTKLEIK
notes: Murine monoclonal antibody from hybridoma; also called 5H23-Alexa647 (labelled form)
Consider B2, for which the affinity in experiment [2], expressed as Kd, was 0.7 nM.
